Experimental data as given in the supplement of paper PMC9170038.

Tested on: MS2 coat protein
Assay: apparent KD of MS2 coat protein; designed switch direction (-1 OFF switch, 1 ON switch): 1; higher = weaker reporter binding
Procedure, shortened: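 RNA switches sharing common flanks were transcribed by stalled E. coli RNA polymerase on Illumina chips. A doubling series of SNAP-549-labelled MS2 coat protein, from 0.7 or 1.5 nM to 3 µM, was applied in Tris-HCl pH 7.5 buffer with KCl, MgCl2, BSA, DTT, tRNA and Tween-20. Each step lasted 0.8–1.5 h at the bottom of the series and 10–20 min at the top. Normalised cluster fluorescence was curve-fitted, giving apparent KD as the per-design median over clusters.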

[1] = Eterna round: R95, input ligand: FMN 200 uM
[2] = Eterna round: R95, input ligand: microRNA oligo, concentration not stated
[3] = Eterna round: R95, input ligand: none
[4] = input ligand: microRNA oligo, concentration not stated

Sequence | apparent KD of MS2 coat protein [1] [nM] | apparent KD of MS2 coat protein [2] [nM] | apparent KD of MS2 coat protein [3] [nM] | apparent KD of MS2 coat protein [4] [nM] | apparent KD of MS2 coat protein (input ligand: FMN 200 uM) [nM] | apparent KD of MS2 coat protein (input ligand: none) [nM]
UGUAAACAUGAGGAUCACCCAUGUAAUAUAAUGGGAGGAUAUCUGAAUUAAUUAAAUUAAGGAGAAGGCCUAAUGU [Mat - Same State 1 - Mod of Eli - D47] (puzzle: Same State 1) | 53.2 | 288 | 482 |  |  | 
GUUAAGAACUAAGGAUAUUGAAUACAUAUGUUUAACAUGAGGAUCACCCAUGUGGGUUGCGGUAUCGAGAAGGUAGAAUAAUAG [Mat - same State NG 2 - JL mod - D93] (Eterna round: R96, puzzle: Same State NG 2) |  |  |  | 89.8 |  | 
CAGCGCUGUCGAGAGGAUAUGCGGUGAUGGACAUGAGGAUCACCCAUGUUAGCGACAGCAUCACGGCAGAAGGCUCUAUCGCUGC [Soteed Omei mod 29] (puzzle: Same State 2) | 24.2 | 39.5 | 48.9 |  |  | 
GUUACAUGAGGAUCACCCAUGUAUGUGUGGGAGUAAGUGUCUUAGGAUAUCUAUUAUAUAAAUUAAGAGAAGGAAGAUUGUUGU [JMF's solution 16] (Eterna round: R96, puzzle: Same State NG 3) |  |  |  | 87.9 | 126 | 124
GUAAUACAUGAGGAUCACCCAUGUCAAUGUAGUCGAGGAUAUGGGUAGCUAUGUGGCUUACUAGAAGGCGACGAGC [Same State 1 - Mod of Vinnie Teenbexe v.4] (puzzle: Same State 1) | 90.3 | 157 | 251 |  |  | 
AUAGUUUCCGAAGGAUAUGAUGAGGAUCACCCAUCAGAAGGUUGGCUAUUGGGCGGACAUGAGGAUCACCCAUGUCUUUCUGUU (Eterna round: R96, puzzle: Same State NG 1) |  |  |  | 10.7 | 12.7 | 18
GAGGCACAUGAGGAUCACCCAUGUGGGUAGAACAUAGGAUAUCACCAACAAAUUACCCGGUGAGAAGGAUGAUGCC [Zalaarza] (puzzle: Same State 1) |  | 151 |  |  |  | 
AGCUAUUAAUCAGGAUAUAGUGACAUGAGGAUCACCCAUGUAUUGAUGAUUAAAUGUGGUCACCGCUAGAAGGGAUUACUAACA [SameState NG2 #47] (Eterna round: R96, puzzle: Same State NG 2) |  |  |  | 23.3 | 25.6 | 30.1
AACAUGAGGAUCACCCAUGUGAAAUACUGAGGCAGCUCAGGGAAGGAUAUGGUUGACACCCUCGACCAGAAGGUCCAAAAUAAA [Aquorxe] (Eterna round: R96, puzzle: Same State NG 3) |  |  |  | 108 | 80.8 | 143
UGUUGUAUUACAGGAUAUCUAUUAAUUUUAUUUAGAGAAGGGUAUUCACAUGAGGAUCACCCAUGUAUAUACGAGGAAGUUGUG [JMF's solution 13] (Eterna round: R96, puzzle: Same State NG 1) |  |  |  | 38.7 |  | 
UUAAUGAUGAUAGGAUAUACAUGAGGAAUCCUCGUAGAAGGAUCAUGACAUGAGGAUCACCCAUGUAACGCUCAGAAGAGCGUA [Mat - Same State NG 1 - JL mod - D42] (Eterna round: R96, puzzle: Same State NG 1) |  |  |  | 37 | 205 | 78.3
GGGUAGAUUUGAGGAUAUCCUUAACCAACAUGAGGAUCACCCAUGUCCAAAAGAGUUCAUUUACCGGAGAAGGCAGAUGCACCC [Eternabot solution 50] (Eterna round: R96, puzzle: Same State NG 2) |  |  |  | 61.4 | 74.7 | 86.4
UCUUGGUUUUUGCUCGUUUUUUGUGUUGAACAUGAGGAUCACCCAUGUAUUGUACGGUCCGGUUUAAUAGUGGUCCG [JMF 14] (puzzle: Sensor for hsa-mir-208a) | 27.8 | 15.4 | 28.3 |  |  | 
UGAAUACAUGAGGAUCACCCAUGUCAACGUAGUCGAGGAUAUGGGCAGCCGUGAGGCGUACUAGAAGGCGAAGAGG [JL-ss1-3.07 ViennaUCT mod] (puzzle: Same State 1) | 131 | 89.9 | 175 |  |  | 
UCAAUCAUGUAAGGAUAUGCAGCCGAAACGGCUGCAGAAGGUACUAUAAUUACAUGAGGAUCACCCAUGUUAUAAAAUUAAAAU [Mat - Same State NG 1 - JL mod - D69] (Eterna round: R96, puzzle: Same State NG 1) |  |  |  | 101 | 35.3 | 130
AAUUAAGAUCAAGGAUAUCACGUCGAUUAGACGUGAGAAGGUGAUAAUUACAUGAGGAUCACCCAUGUAUAACAUGAAUUAAUU [SSNG1/9-B2] (Eterna round: R96, puzzle: Same State NG 1) |  |  |  | 23.9 | 31.8 | 33.5

Sequence | apparent KD of MS2 coat protein [1] [nM] | apparent KD of MS2 coat protein [2] [nM] | apparent KD of MS2 coat protein [3] [nM] | apparent KD of MS2 coat protein [4] [nM] | apparent KD of MS2 coat protein (input ligand: FMN 200 uM) [nM] | apparent KD of MS2 coat protein (input ligand: none) [nM]
UGAACCGUCACAGGAUAUCAUGCGAAAAUUGCGUGAGAAGGGUGGAUGUUGUGCUCAAAGUUCUACAUGAGGAUCACCCAUGUU [SameState NG1 #44] (Eterna round: R96, puzzle: Same State NG 1) |  |  |  | 33.5 | 61.9 | 60.5
GGUACAGUUACAGGAUAUGCUAUCCUUUGGGUAGCAGAAGGGUGGUAACAUGAGGAUCACCCAUGUGUGCCAGGGCGUGAGCCC [JL SSNG1 1.99] (Eterna round: R96, puzzle: Same State NG 1) |  |  |  | 387 | 502 | 700
UUGAUGAACUGAGGAUAUCGAGUCGUCUCAUUACACAUGAGGAUCACCCAUGUGGGUUGUGGUAUCGAGAAGGCAGAAUACUCA [JR_SSNG2_Sub033] (Eterna round: R96, puzzle: Same State NG 2) |  |  |  | 28.7 | 25.1 | 32.8
GCGGAGAGGUAAGGAUAUCCAUGGAAAAAACAUGAGGAUCACCCAUGUAGGAAAAAAACUAGGAGGGAGAAGGUACCGGGACGC [AK SSNG2-V2-20] (Eterna round: R96, puzzle: Same State NG 2) |  |  |  | 23.4 | 21.7 | 29.8
AGUCCAGCCUGAGCUGGACGAAAGCAUGUACAUGAGGAUCACCCAUGUCAUGUACAAGCUUUUUGCUCGUCUUAAAA [Zipper 46 - 4] (puzzle: Sensor for hsa-mir-208a) | 482 | 15 | 532 |  |  | 
GGUGCCAAUAAAGCCUACAUGAGGAUCACCCAUGUAUGUAGGCAGGAUAUCGUUUGCUUUGCAAACGAGAAGGGCCGAGGCACC [JL SSNG3 1.19] (Eterna round: R96, puzzle: Same State NG 3) |  |  |  | 25.1 | 20.4 | 42.7
AAAGAAGAAAGACAGGAUAUGGAUGGGUAAACAUGAGGAUCACCCAUGUAUAAGAAAGAAAGAAACCAGAAGGGUCAAAAGAAAA [Darius III] (Eterna round: R96, puzzle: Same State 2) |  |  |  | 217 | 68.7 | 253
ACAUGAGAGUGAGGAUAUCAUGUACCUACAUGUGACAUGAGGAUCACCCAUGUGGUAAGUAUGACUGAGAAGGCACAGAUAUGU [Equivalance 90 - Jieux - Same State NG 2] (Eterna round: R96, puzzle: Same State NG 2) |  |  |  | 267 | 70.3 | 889
GAGAGAGGAAGCGAGGAUAUCGUGUUAGGUACAUGAGGAUCACCCAUGUUGUAGGUAGAGGUAGGCGAGAAGGCGCAGGAGAGGU [JR_SS2_Sub095] (puzzle: Same State 2) | 26.7 | 26.4 | 32.2 |  |  | 
AGGCUCAGACGAGGAUAUAUGUGGUCACAUGAGGAUCACCCAUGUCUCGAGCUUCGGCUCGAGGCAUAGAAGGCGUCUGAGCCA [SSNG2/5-A1] (Eterna round: R96, puzzle: Same State NG 2) |  |  |  | 16.4 | 662 | 184
AAUAAUUUACAUGAGGAUCACCCAUGUGGUAAACAUGCUUUUUGCUCGUCUUAUGGUUUUUUUUUUUUUUUUUUUUU [viviankchen1] (puzzle: Sensor for hsa-mir-208a version 2) | 91 | 49.6 | 130 |  |  | 
UUCGAGUAGCAAGGAUAUCUUAUUUAGAUUUUAAGAGAAGGUGCUUAUUAGAAACAUGAGGAUCACCCAUGUAUUACUUCUUAU [JR_SSNG1_Sub066] (Eterna round: R96, puzzle: Same State NG 1) |  |  |  | 13.8 | 14.1 | 20.1
GGCAUGCGGCGUACCGUAUGCUGGUAUGUACAUGAGGAUCACCCAUGUCAUGUACAGGCUUGUUGCUCGUCUUAUUG [JL-shm-2.41 JL mod] (puzzle: Sensor for hsa-mir-208a) | 137 | 34.3 | 158 |  |  | 
GCUGGCAUGCAAGGAUAUCCUUCCGAGUAGGAAGGAGAAGGUGCUUGUGGGACAUGAGGAUCACCCAUGUAUGUUGGCCACGAC [Inrala] (Eterna round: R96, puzzle: Same State NG 1) |  |  |  | 82.1 |  | 
CCGGUUAAUGGAGGAUAUGGAGCCUUAUUGGCUCCAGAAGGCUAAACAUGAGGAUCACCCAUGUUACCGGCGGUCAAUAGACCG [Eli NG1ss - 61] (Eterna round: R96, puzzle: Same State NG 1) |  |  |  | 18 | 11.5 | 23
